Consider three molecules from paper PMC10411628 (Chemical Science, 2023).

Data set [1] is described as follows: Circular dichroism of DG12. The note with it: circular dichroism spectrum. Type of data set: physicochemical.
The nature of data set [2]: NMR titration of CP-1 with DG12. The format is binding. To be noted: 1H–1H COSY, equimolar CP-1 and DG12, 20 mM, d6-DMSO, 25 °C.
A further data set concerns pancreatic cancer cells. The note with it: cited from earlier work.
The target of data set [3] is CP-1 (cyclic peptide 1). The data set is described as follows: QCM-D.
Data set [4] deals with CP-1 (cyclic peptide 1). The data set can be described thus: nanochannel device, transmembrane ionic current and Faraday current.
Data set [5] has as its target CP-1 (cyclic peptide 1). The data set can be described thus: BLI.
Data set [6] addresses CP-1 (cyclic peptide 1). The data set is described as follows: electrochemical impedance spectroscopy.

Take DVIEVYQEQTGG [DG12]: in data set [1], the conformation result was “random coil conformation”. In data set [2], the “largest chemical shift changes upon complexation, protons of DG12” value is “H13 (isoleucine; C–H), H45 (glutamine; C–H), H51 (threonine; C–H), and H54 (glycine; N–H)”.

As for `Cc1sc(C(=O)c2cncnc2N[C@@H]2C[C@H](COS(N)(=O)=O)[C@@H](O)C2)cc1[C@@H]1NCCc2ccc(Cl)cc21` [TAK-981], the “effect on SUMOylation” value in the data set on pancreatic cancer cells was “selectively reduces SUMOylation”.

Consider DVIEVYQEQTGG [DG12, terminal dodecapeptide sequence of SUMO1], for which the adsorption amount with CP-1 (cyclic peptide 1) [3] is 142 ng cm^−2. In the data set with CP-1 (cyclic peptide 1) [4], the transmembrane ionic current increase ratio at 1 × 10^−6 M DG12 was 84%. This molecule returned a Kd in the data set with CP-1 (cyclic peptide 1) [5] of 5.86 µM. The Rct increase at 10 nM DG12 with CP-1 (cyclic peptide 1) [6] worked out at 277%.
